Here are results for three molecules from article PMC5814829.

Holding throughout (test): fluorescence anisotropy
Series [1] addresses T1, ScPif1p R323A (Saccharomyces cerevisiae, UniProt P07271 237-780, R323A).
T1 sequence: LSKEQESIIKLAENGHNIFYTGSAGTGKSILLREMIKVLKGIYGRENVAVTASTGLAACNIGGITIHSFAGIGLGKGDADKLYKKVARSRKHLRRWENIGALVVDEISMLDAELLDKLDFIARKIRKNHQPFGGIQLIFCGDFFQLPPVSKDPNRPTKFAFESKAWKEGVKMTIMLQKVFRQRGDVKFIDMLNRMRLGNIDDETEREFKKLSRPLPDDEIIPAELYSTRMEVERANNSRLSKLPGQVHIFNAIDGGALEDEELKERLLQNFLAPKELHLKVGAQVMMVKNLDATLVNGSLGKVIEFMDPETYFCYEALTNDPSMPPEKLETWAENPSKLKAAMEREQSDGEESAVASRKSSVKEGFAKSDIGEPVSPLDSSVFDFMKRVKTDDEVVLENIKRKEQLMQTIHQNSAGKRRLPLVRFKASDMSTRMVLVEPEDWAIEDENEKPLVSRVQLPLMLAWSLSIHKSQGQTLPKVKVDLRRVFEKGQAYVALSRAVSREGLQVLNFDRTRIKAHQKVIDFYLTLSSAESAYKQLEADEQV

Series [2] has as its target T2, ScPif1p R324N (Saccharomyces cerevisiae, UniProt P07271 237-780, R324N).
T2 sequence: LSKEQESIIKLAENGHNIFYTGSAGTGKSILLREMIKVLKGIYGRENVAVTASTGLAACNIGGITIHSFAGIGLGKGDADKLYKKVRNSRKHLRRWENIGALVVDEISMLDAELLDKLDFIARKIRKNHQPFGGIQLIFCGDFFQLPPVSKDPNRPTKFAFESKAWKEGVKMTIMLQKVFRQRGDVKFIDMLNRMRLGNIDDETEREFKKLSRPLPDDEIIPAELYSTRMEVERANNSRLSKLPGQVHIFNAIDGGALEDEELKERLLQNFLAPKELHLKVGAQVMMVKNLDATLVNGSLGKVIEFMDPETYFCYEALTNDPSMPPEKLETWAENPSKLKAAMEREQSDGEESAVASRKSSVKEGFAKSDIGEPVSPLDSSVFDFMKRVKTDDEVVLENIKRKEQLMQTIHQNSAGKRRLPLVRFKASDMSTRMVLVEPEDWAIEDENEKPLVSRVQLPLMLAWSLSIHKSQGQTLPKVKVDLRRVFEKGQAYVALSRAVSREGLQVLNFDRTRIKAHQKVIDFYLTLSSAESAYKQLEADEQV

The target in series [3] is T3, ScPif1p K363A (Saccharomyces cerevisiae, UniProt P07271 237-780, K363A).
T3 sequence: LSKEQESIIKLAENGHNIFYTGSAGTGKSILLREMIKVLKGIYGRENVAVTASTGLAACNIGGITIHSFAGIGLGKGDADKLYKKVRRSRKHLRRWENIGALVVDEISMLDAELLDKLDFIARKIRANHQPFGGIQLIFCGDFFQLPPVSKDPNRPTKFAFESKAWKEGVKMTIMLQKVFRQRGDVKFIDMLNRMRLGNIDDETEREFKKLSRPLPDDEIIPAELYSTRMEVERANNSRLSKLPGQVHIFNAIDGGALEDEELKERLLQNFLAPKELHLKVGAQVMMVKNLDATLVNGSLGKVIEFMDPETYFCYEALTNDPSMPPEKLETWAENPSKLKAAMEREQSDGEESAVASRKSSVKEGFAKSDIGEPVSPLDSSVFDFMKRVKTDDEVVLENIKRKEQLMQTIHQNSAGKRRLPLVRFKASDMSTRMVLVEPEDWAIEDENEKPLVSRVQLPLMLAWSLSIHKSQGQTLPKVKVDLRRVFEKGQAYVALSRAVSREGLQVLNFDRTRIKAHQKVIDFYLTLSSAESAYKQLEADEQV

Series [4] deals with T4, ScPif1p R594A/K595A (Saccharomyces cerevisiae, UniProt P07271 237-780, R594A;K595A).
T4 sequence: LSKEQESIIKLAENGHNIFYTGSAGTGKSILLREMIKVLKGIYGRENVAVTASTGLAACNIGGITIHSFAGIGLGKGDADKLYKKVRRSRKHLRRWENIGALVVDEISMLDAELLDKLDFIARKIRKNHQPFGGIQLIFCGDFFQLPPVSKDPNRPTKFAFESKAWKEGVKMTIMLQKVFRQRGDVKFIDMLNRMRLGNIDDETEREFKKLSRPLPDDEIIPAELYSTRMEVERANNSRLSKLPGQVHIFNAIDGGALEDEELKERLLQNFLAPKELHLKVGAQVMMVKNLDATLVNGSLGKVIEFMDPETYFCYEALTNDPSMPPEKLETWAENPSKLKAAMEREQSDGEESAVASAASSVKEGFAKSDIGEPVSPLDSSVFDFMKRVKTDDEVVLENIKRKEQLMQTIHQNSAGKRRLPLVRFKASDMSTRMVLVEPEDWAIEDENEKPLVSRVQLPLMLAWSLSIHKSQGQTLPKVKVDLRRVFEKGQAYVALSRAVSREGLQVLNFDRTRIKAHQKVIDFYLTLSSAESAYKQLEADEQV

As to GTGTGTGTGGTG (ssDNA) [GR12], the Kd in series [1] was 9.9 ± 0.4 nM; in series [2], 11.4 ± 4.3 nM; in series [3], 14.4 ± 1.3 nM; in series [4], 10.5 ± 3.5 nM.

B1: dsDNA16bp (dsDNA)
DNA 1: CTCTGCTCGACGGATT
DNA 2: AATCCGTCGAGCAGAG
Turning to B1, the equilibrium dissociation constant (Kd) was 100 ± 5.1 nM in series [1], 57.9 ± 1.1 nM in series [2], 72.3 ± 8.3 nM in series [3] and 78.9 ± 9.3 nM in series [4].
As to AGGGTGGGTGGGTGGGT (structured_DNA) [F-G417], the dissociation constant (Kd) turned out to be 25.1 ± 1.4 nM in series [1], 87.9 ± 7.1 nM in series [2], 43.9 ± 2.2 nM in series [3] and 72.9 ± 4.9 nM in series [4].
